Measured values: patent US20170088634A1, “TREATMENT OF NEUROTRAUMA USING ANTIBODIES TO LYSOPHOSPHATIDIC ACID” (priority 2012, published 2017)
Read-outs that look alike come from different tables or passages of the source. Marks after values point to notes of the source that are not given here.

Key:
hNS/PC neurospheres [1] = test: Neurosphere formation; format: cell-based, human; conditions: LPA 10 uM
Description: (§1) Neurospheres were used to model the role of LPA in neuronal differentiation as described in commonly-owned U.S. patent application publication no. US20110076269 and U.S. Pat. No. 8,604,172. […] LPA also interferes with an additional differentiation step, namely, the differentiation of NSC toward mature cells.
Anti-LPA antibodies have been found by the inventors to block LPA inhibition of neurosphere formation, as described in commonly-owned U.S. patent application publication no. US20110076269 and U.S. Pat. No. 8,604,172.

adult mouse NSC = test: Neuronal differentiation of adult mouse NSC; format: cell-based
Description: However, and similarly to data obtained in human NSC, LPA inhibited the neuronal differentiation of adult mouse NSC by maintaining them as NSC when plated in conditions normally inducing neuronal differentiation. […] These effects were independent of apoptosis or proliferation.

hNS/PC neurospheres [2] = test: Neuronal differentiation of plated neurospheres (neuron-forming neurospheres); format: cell-based, human
Procedure: as §1
Using the same conditions used in Example 2, above, for LPA treatment alone, plated neurospheres were treated with 10 μM LPA alone, or with anti-LPA antibody B3 or B7 (1 mg/ml) alone, or with 10 μM LPA in combination with 1 mg/ml of antibody B3 or B7. Similarly, cells were treated with 10 μM LPA alone, humanized anti-LPA antibody LT3015 alone (1 mg/ml), or with 10 μM LPA in combination with 1 mg/ml LT3015. The percent of neuron-forming neurospheres was quantitated as in Example 2 (beta-tubulin staining and quantification of neuron-forming spheres, as described in Dottori, et al (2008)). […] Neurosphere samples treated with B3 antibody alone had neuron-forming neurospheres equivalent to control (100%). […] The antibody B7, under similar conditions, had little to no effect in this experiment (37.00±5.31% of control).
Using the conditions described in the Example above, […] were plated onto laminin for neuronal differentiation in NBM medium (3 days), with or without LPA (10 μM), with or without antibody to LPA at 1 mg/ml (B3, B7, or the humanized antibody LT3015, tested singly with or without LPA).

[3] = Competition ELISA, competitor lipid 14:0 LPA; format: binding; conditions: maximum inhibition
Description: (§2) Although polyclonal antibodies against naturally-occurring LPA have been reported in the literature (Chen, et al., Bioorg Med Chem Lett. 2000 Aug. 7; 10(15):1691-3), monoclonal antibodies to LPA had not been described until Sabbadini, et al., U.S. patent application publication no. 20080145360, and U.S. Pat. No. 8,158,124, both of which are commonly owned herewith. The former publication describes the production and characterization of a series of murine monoclonal antibodies against LPA and the latter describes, among other things, a humanized monoclonal antibody against LPA. IC50: Half maximum inhibition concentration; MI: Maximum inhibition (% of binding in the absence of inhibitor); ---: not estimated because of weak inhibition. A high inhibition result indicates recognition of the competitor lipid by the antibody.

SKOV3 cells = test: Apoptosis: Taxol induced caspase-3 activation in SKOV3 cells, LPA protection; format: cell-based; conditions: Lpathomab, 1 mM Taxol, 1 mM 18:1 LPA, SKOV3, n = 1
[4] = Competition ELISA specificity, competitor lipid LPC; format: binding; conditions: n = 3
Procedure: (§3) The specificity of the anti-LPA mAbs was assessed for their binding to LPA-related biolipids such as distearoyl-phosphatidic acid, lysophosphatidylcholine, SIP, ceramide, and ceramide-1-phosphate.

[5] = cited from earlier work
[6] = Surface plasmon resonance (BiaCore) and direct binding ELISA of LT3000; conditions: Table 12
Description: (§4) The murine antibody is a full-length IgG1 k isotype antibody composed of two identical light chains and two identical heavy chains with a total molecular weight of 155.5 kDa.

[7] = Competition ELISA specificity, competitor lipid DSPA (distearoyl PA); format: binding; conditions: n = 3
Procedure: as §3

[8] = Competition ELISA specificity, competitor lipid Cer; format: binding; conditions: n = 3
[9] = Competition ELISA, competitor lipid 18:2 LPA; format: binding; conditions: maximum inhibition
Description: as §2

[10] = cited from earlier work; remark: listed apart in the source
SKOV3 cell invasion = test: Invasion assay, SKOV3 cells triggered by LPA; format: cell-based; parameters: dose or concentration left out as unconfirmed; conditions: Lpathomab 14:0 LPA, SKOV3, n = 2
[11] = Competition ELISA, competitor lipid 16:0 LPA; format: binding; conditions: maximum inhibition
Description: as §2

[12] = Competition ELISA specificity, competitor lipid C1P; format: binding; conditions: n = 3
Apparent Tm of antibody = format: physicochemical; conditions: pH7.4
[13] = Specificity of LT3000 against other lipids and proteins; format: binding; conditions: over 100 different bioactive lipids and proteins, including over 20 bioactive lipids
Description: as §4

[14] = Binding affinity of humanized, chimeric and murine anti-LPA antibodies
[15] = Competition ELISA specificity, competitor lipid S1P; format: binding; conditions: n = 3
human IL-8 = test: LPA-induced IL-8 release in SKOV3 conditioned media; format: cell-based; parameters: dose or concentration left out as unconfirmed; conditions: Lpathomab 18:1 LPA, SKOV3, n = 3
[16] = Competition ELISA, competitor lipid 18:1 LPA; format: binding; conditions: maximum inhibition
Description: as §2

SKOV3 cell migration = test: Migration assay, SKOV3 cells triggered by LPA; format: cell-based; conditions: Lpathomab, 1 mM 18:1 LPA, SKOV3, n = 3
human IL-6 = test: LPA-induced IL-6 release in SKOV3 conditioned media; format: cell-based; conditions: Lpathomab 300-600 mg/mL, 1 mM 18:1 LPA, SKOV3, n = 3
[17] = cited from earlier work; remark: listed apart in the source
interleukin-8 (IL-8) = test: IL-8 release from ovarian cancer cells; format: cell-based
Description: Five humanized variants were further assessed in in vitro cell assays. LPA is important in eliciting release of interleukin-8 (IL-8) from cancer cells.

[18] = Competition ELISA, competitor lipid 20:4 LPA; format: binding; conditions: maximum inhibition
Description: as §2

Solubility of antibody = format: physicochemical; conditions: 6.6 mM phosphate, 154 mM sodium chloride, pH 7.4
[19] = Specificity / cross-reactivity profile; format: binding
[20] = cited from earlier work; remark: listed apart in the source
[21] = cited from earlier work; remark: listed apart in the source

For lysophosphatidic acid [LPA], the “neurosphere formation, LPA” value (hNS/PC neurospheres [1]) was “inhibited”, the “neurosphere formation or growth of mouse NSC” value (adult mouse NSC) was “did not modify” and the “βIII-tubulin expression (differentiated neurons)” value (adult mouse NSC; LPA (10 NM), three days, untreated 57.12±18.42%) was 26.25±2.08 % of total cells. The “nestin positive (undifferentiated NSCs)” value (adult mouse NSC; LPA (10 NM), three days, untreated 58.01±6.20) was 87.55±3.20 % of total cells, the “decrease in neuron-forming spheres” value (hNS/PC neurospheres [2]; 10 uM LPA) was about 80% and the “neuron-forming spheres, LPA alone (Example 4)” value (hNS/PC neurospheres [2]; 10 μM LPA, 3 days) was “approximately 26 % of control”.

B1: B7: murine anti-LPA monoclonal antibody, full-length IgG1k; VH SEQ ID NO: 3, VL SEQ ID NO: 4 (antibody, V domains shown)
VH: QVQLQQSGAELVRPGTSVKVSCKASGYGFINYLIEWIKQRPGQGLEWIGLINPGSDYTNYNENFKGKATLTADKSSSTAYMHLSSLTSEDSAVYFCARRFGYYGSGNYFDYWGQGTTLTVSS
VL: DVVMTQTPLSLPVSLGDQASISCTSGQSLVHINGNTYLHWYLQKPGQSPKLLIYKVSNLFSGVPDRFSGSGSGTDFTLKISRVEAEDLGVYFCSQSTHFPFTFGTGTKLEIK
For B1, the “MI, competitor lipid 14:0 LPA” value [3] was 61.3%, the “Apoptosis % Induction (over LPA + TAXOL taken as 100)” value (SKOV3 cells) was 79% and the “MI, competitor lipid LPC” value [4] was 0%. For the same molecule, the IC50 ([5]; competition ELISA, read-out: 18:1 LPA IC50) was over 2000 nM, the “18:1 LPA MI” value ([5]; maximum inhibition) was 100% and the Kd [6] was 0.001 to 0.05 nM. The “MI, competitor lipid DSPA” value [7] was 0%, the “MI, competitor lipid Cer” value [8] was 1% and the “MI, competitor lipid 18:2 LPA” value [9] was 100%. For the same molecule, the IC50 ([10]; competition ELISA, read-out: 18:2 LPA IC50) was 1490 nM, the “18:2 LPA MI” value ([10]; maximum inhibition) was 100% and the “Invasion % Inhibition (over LPA taken as 100)” value (SKOV3 cell invasion) was 95* %. For the same molecule, the “MI, competitor lipid 16:0 LPA” value [11] was 62.9%, the “MI, competitor lipid C1P” value [12] was 1.0% and the “Apparent Tm” value (Apparent Tm of antibody) was 67 °C at pH7.4. For the same molecule, the “binding affinity for other bioactive lipids and proteins (specificity)” value [13] was “no binding affinity”, the “binding affinity for LPA (in words)” value [14] was “low picomolar range” and the “MI, competitor lipid S1P” value [15] was 2.7%. For the same molecule, the “IL-8 Release % Inhibition (over LPA taken as 100)” value (human IL-8) was 20%, the “MI, competitor lipid 18:1 LPA” value [16] was 100% and the “Migration % Inhibition (over LPA taken as 100)” value (SKOV3 cell migration) was 35* %. For the same molecule, the “IL-6 Release % Inhibition (over LPA taken as 100)” value (human IL-6) was 23* %, the IC50 ([17]; competition ELISA, read-out: 20:4 LPA IC50) was 161 nM and the “20:4 LPA MI” value ([17]; maximum inhibition) was 67%. For the same molecule, the “IL-8 release from ovarian cancer cells” value (interleukin-8 (IL-8)) was “reduced IL-8 release”, the “MI, competitor lipid 20:4 LPA” value [18] was 67% and the Solubility (Solubility of antibody) was >40 mg/mL in 6.6 mM phosphate,. For the same molecule, the “neuron-forming neurospheres, LPA plus antibody (pool of data)” value (hNS/PC neurospheres [2]; 10 μM LPA in combination with 1 mg/ml antibody) was 37.00±5.31 % of control, the “number of neurons in neurospheres (comparison between antibodies)” value (hNS/PC neurospheres [2]; 10 μM LPA plus antibody 1 mg/ml) was “lesser number of neurons” and the “neuron-forming neurospheres, LPA plus antibody (Example 4)” value (hNS/PC neurospheres [2]; 10 μM LPA, antibody 1 mg/ml, 3 days on laminin in NBM medium) was 50 % of control. The “cross-reactivity to LPC, PA, 14:0 and 18:1 LPA, cPA, PC” value [19] was “no cross-reactivity”, the IC50 ([20]; competition ELISA, half maximum inhibition concentration, read-out: 14:0 LPA IC50) was 105 nM and the “14:0 LPA MI” value ([20]; maximum inhibition (% of binding in the absence of inhibitor)) was 61.3%. The IC50 ([21]; competition ELISA, read-out: 16:0 LPA IC50) was 483 nM and the “16:0 LPA MI” value ([21]; maximum inhibition) was 62.9%.
